{"source": "paper PMC2946066", "target": "VHH ALc-B8 expressed as thioredoxin fusion protein (alpaca)", "assay": "SPR", "data": [{"substance": "recombinant BoNT/A protease (light chain), amino acids 1–448 of BoNT/A holotoxin (from UniProt P0DPI1 1-448) (enzyme)", "values": [{"measurement": "Kd", "result": 1.06, "unit": "nM"}]}]}
